We go through 120 sequences from the supplement of paper PMC10126150.

± gives the standard deviation of the averaged measurements.
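Further: ATP exposure 15 min at 22 °C before imaging.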

For the data set, the system named is ATP. Kind of data set: switch fluorescence ratio, 500 uM ATP over buffer (Cy3 cluster intensity, sum of 5 cycles each) (fold (ratio)); higher = stronger signal-on switching upon ATP binding; sequences stand for … in TCGTCGGCAGCGTCAGATGTGTATAAGAGACAGTTTTTTTTTTTTTTTTTTTTTTTTT…TC. To be noted: aptamer strand: ATP DNA aptamer (quencher-CACCTGGGGGAGTATTGCGGAGGAAGG + anchor), 100 nM annealed; ATP concentration: 500 uM. Summed up: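 Imaging in selection buffer was followed by imaging after 15 min with 500 uM ATP at 22 °C, for Cy3-labelled switching-strand clusters annealed to 100 nM quencher-labelled ATP aptamer on a modified Illumina MiSeq flow-cell. Five of these buffer/ATP cycles ran, separated by NaOH stripping and re-annealing. The fluorescence ratio per cluster is summed target-cycle over summed buffer-cycle Cy3 intensity, averaged per switch-domain sequence; clusters outside 100-1000 RFU were removed.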
For GGTTAGCGG, the switch fluorescence ratio was found to be 0.9599 ± 0.0026.

Turning to TTTTCAAGAC, the switch fluorescence ratio stood at 1.31 ± 0.28.

On to GCGGGTTTTA, for which the switch fluorescence ratio was found to be 1.006 ± 0.0083.

As for TGCCATAGG, the switch fluorescence ratio amounted to 1.008 ± 0.0032.

Regarding CTGTAGTCTG, the switch fluorescence ratio came to 1.11 ± 0.019.

As for GTGTTTATGC, the switch fluorescence ratio was determined as 0.991 ± 0.0044.

For the sequence GAAAGTAGAG, the switch fluorescence ratio worked out at 1.01 ± 0.0018.

As to AGCTTATTGC, the switch fluorescence ratio came out at 0.977 ± 0.015.

With TTAGATACAT, the switch fluorescence ratio turned out to be 1 ± 0.019.

Consider GCAGGAAGTC, for which the switch fluorescence ratio stood at 0.994 ± 0.0039.

Take TCATGTGACT: the switch fluorescence ratio worked out at 1.02 ± 0.053.

For TTAATTCTAC, the switch fluorescence ratio turned out to be 1.039 ± 0.0063.

On to TGAGGGGTAG, for which the switch fluorescence ratio stood at 0.988 ± 0.05.

Regarding GGAAGGGGTG, the switch fluorescence ratio worked out at 1.01 ± 0.035.

As to TGACGTTATC, the switch fluorescence ratio came out at 1.18 ± 0.025.

For the sequence CGTTTGATGC, the switch fluorescence ratio came out at 1.018 ± 0.0033.

On to AGCGTTAGAG, for which the switch fluorescence ratio is 1.09 ± 0.017.

On to TATATTGGGA, for which the switch fluorescence ratio turned out to be 0.992 ± 0.022.

On to GGAAAAACGT, for which the switch fluorescence ratio was 0.998 ± 0.015.

With TGAGGGTAAG, the switch fluorescence ratio worked out at 1.13 ± 0.21.

Regarding GTGATGGCAG, the switch fluorescence ratio is 0.9846 ± 0.0053.

Take AAATCTCGGA: the switch fluorescence ratio was found to be 1.2 ± 0.31.

For the sequence TTGGAAGATT, the switch fluorescence ratio came out at 0.9881 ± 0.003.

On to CTTTGGATTG, for which the switch fluorescence ratio is 0.99917 ± 0.00068.

Regarding TTATGTTTGT, the switch fluorescence ratio was 1.01 ± 0.033.

As for AGTAACAGCC, the switch fluorescence ratio was determined as 1.001 ± 0.0066.

Take TGATAGGGAG: the switch fluorescence ratio is 0.982 ± 0.019.

Consider TTTAAGTGTC, for which the switch fluorescence ratio was determined as 1.09 ± 0.11.

For the sequence TATGTTTAAA, the switch fluorescence ratio was 0.9922 ± 0.0042.

Take TGGGGCGGGA: the switch fluorescence ratio came to 1.02 ± 0.08.

For GAGGAGGGAG, the switch fluorescence ratio came to 0.998 ± 0.014.

Consider CGGGAACTGT, for which the switch fluorescence ratio stood at 0.964 ± 0.07.

Turning to TTTGGCTAAG, the switch fluorescence ratio was 0.976 ± 0.027.

For the sequence TTGACAATGT, the switch fluorescence ratio was determined as 1.03 ± 0.095.

As for TTTCAAGGGA, the switch fluorescence ratio came out at 0.9904 ± 0.0048.

Regarding ATAGAATTAA, the switch fluorescence ratio was 0.989 ± 0.013.

With TTGGATACGG, the switch fluorescence ratio amounted to 0.995 ± 0.031.

TAGTGTATCG: the switch fluorescence ratio is 0.993 ± 0.045.

In the case of TTGTTTTGCT, the switch fluorescence ratio worked out at 0.999 ± 0.073.

For GTAATAGGTT, the switch fluorescence ratio worked out at 0.956 ± 0.057.

On to GGTTTAATCG, for which the switch fluorescence ratio was determined as 1.01 ± 0.046.

As to AGTCATTAGG, the switch fluorescence ratio came out at 1.03 ± 0.041.

Take TTTCAACTAC: the switch fluorescence ratio was determined as 1.25 ± 0.23.

On to TCCAAGTGTT, for which the switch fluorescence ratio was determined as 0.998 ± 0.035.

As to GTTGCTAAAT, the switch fluorescence ratio was 1 ± 0.03.

Consider GTGTGCGCTG, for which the switch fluorescence ratio came to 1.008 ± 0.0073.

For the sequence ACAGGGGCGG, the switch fluorescence ratio is 1.008 ± 0.006.

Consider AATGGCGGGA, for which the switch fluorescence ratio amounted to 1.021 ± 0.0015.

As for CGTTTAGACG, the switch fluorescence ratio is 1.09 ± 0.095.

In the case of TAATTCGGTT, the switch fluorescence ratio worked out at 1 ± 0.021.

Consider GTTAACTTGA, for which the switch fluorescence ratio came to 1.01 ± 0.011.

In the case of CCTGACTTTG, the switch fluorescence ratio turned out to be 0.972 ± 0.043.

As for GATGAGTCTG, the switch fluorescence ratio worked out at 0.98 ± 0.044.

Regarding CCAGTTTTTC, the switch fluorescence ratio came to 1.01 ± 0.019.

As to GACCTTGACG, the switch fluorescence ratio turned out to be 1.02 ± 0.022.

In the case of AAGCGGGGGG, the switch fluorescence ratio was determined as 1.03 ± 0.015.

GTTGCGTGCT: the switch fluorescence ratio was 0.969 ± 0.032.

With TTTGGTTACA, the switch fluorescence ratio came out at 1.01 ± 0.04.

In the case of AAAGGCCTG, the switch fluorescence ratio is 1.01 ± 0.017.

GGAGCGGTGG: the switch fluorescence ratio amounted to 0.955 ± 0.042.

For the sequence TGCGGTGACC, the switch fluorescence ratio came out at 1 ± 0.014.

On to GTCGGTAAGG, for which the switch fluorescence ratio was 0.982 ± 0.021.

For the sequence CGGGAACTCG, the switch fluorescence ratio was 1.01 ± 0.04.

Consider AGAATCCTG, for which the switch fluorescence ratio was found to be 0.995 ± 0.043.

On to GTTACAAGGG, for which the switch fluorescence ratio is 0.9883 ± 0.0092.

With TTTTTGCGCG, the switch fluorescence ratio was 0.9974 ± 0.0065.

For the sequence TGTTAAAGGA, the switch fluorescence ratio was 0.991 ± 0.022.

Take TTGTGAGGGT: the switch fluorescence ratio came to 0.981 ± 0.033.

In the case of TTATTATGGA, the switch fluorescence ratio was determined as 1.02 ± 0.011.

Turning to TTTAAAAGGT, the switch fluorescence ratio came out at 1 ± 0.011.

As for TTCATATATG, the switch fluorescence ratio is 0.989 ± 0.018.

Regarding TAGGATGGGG, the switch fluorescence ratio was 1 ± 0.032.

With AGGGGTTATA, the switch fluorescence ratio turned out to be 1.01 ± 0.024.

As for AGTGGACAGC, the switch fluorescence ratio was found to be 1 ± 0.031.

In the case of TTTTCGGTGG, the switch fluorescence ratio worked out at 1.05 ± 0.019.

For the sequence TGTGTTTTCT, the switch fluorescence ratio was 0.9862 ± 0.003.

For the sequence TCGTTTTTAT, the switch fluorescence ratio was 0.983 ± 0.023.

Consider AGTACGAGGA, for which the switch fluorescence ratio is 1.04 ± 0.035.

Consider TACGGAAGGT, for which the switch fluorescence ratio was determined as 1.06 ± 0.034.

GGTTGCATCG: the switch fluorescence ratio turned out to be 0.986 ± 0.012.

For GATAGTCATG, the switch fluorescence ratio turned out to be 0.985 ± 0.015.

In the case of TATGAAAATC, the switch fluorescence ratio turned out to be 0.983 ± 0.03.

On to AGATTGTGGT, for which the switch fluorescence ratio stood at 0.99 ± 0.018.

Take TAGTGAAGGG: the switch fluorescence ratio amounted to 0.9974 ± 0.0061.

For CAAAATTAAA, the switch fluorescence ratio turned out to be 0.958 ± 0.044.

Take TAGTTATGAG: the switch fluorescence ratio is 1.12 ± 0.19.

Consider TGGGGAACG, for which the switch fluorescence ratio is 0.9595 ± 0.006.

Regarding ACGGGTTCGC, the switch fluorescence ratio came out at 0.988 ± 0.022.

As to TTGGGTCCGA, the switch fluorescence ratio came out at 1.01 ± 0.049.

For the sequence TTGGGGAAAT, the switch fluorescence ratio was 1.31 ± 0.68.

As to ATTTATGGAT, the switch fluorescence ratio was found to be 1 ± 0.023.

With TGATCGGGGA, the switch fluorescence ratio stood at 1.028 ± 0.0063.

On to GTGTACGCTG, for which the switch fluorescence ratio is 0.988 ± 0.027.

For GTGGTTAAAA, the switch fluorescence ratio turned out to be 0.998 ± 0.012.

For the sequence AGAGTATTGC, the switch fluorescence ratio was determined as 1.04 ± 0.16.

As to CCGAAGGGGA, the switch fluorescence ratio came to 1.65 ± 0.88.

TTTGGGGCTG: the switch fluorescence ratio was 1.04 ± 0.11.

Regarding CCAGACAGGG, the switch fluorescence ratio turned out to be 0.956 ± 0.045.

As for TGGGAATTAA, the switch fluorescence ratio was 0.979 ± 0.04.

On to ACTTAATGGG, for which the switch fluorescence ratio was found to be 1.034 ± 0.0014.

On to TCTAATGTGG, for which the switch fluorescence ratio was found to be 0.983 ± 0.043.

Regarding GAAAAAGGTC, the switch fluorescence ratio came out at 1.031 ± 0.008.

Take TGGGTAAGCA: the switch fluorescence ratio was 1.03 ± 0.023.

On to TTATTTGAAT, for which the switch fluorescence ratio was determined as 1.011 ± 0.0027.

On to CTTTATGCGA, for which the switch fluorescence ratio amounted to 1.033 ± 0.0093.

Take CCAGTTTGGT: the switch fluorescence ratio was determined as 0.9871 ± 0.0073.

ACGGGCAATG: the switch fluorescence ratio amounted to 1.32 ± 0.16.

Regarding TCAGTTGGGG, the switch fluorescence ratio amounted to 0.991 ± 0.011.

With GAATTAGGTA, the switch fluorescence ratio stood at 0.962 ± 0.01.

TGTCGTTGGA: the switch fluorescence ratio amounted to 0.998 ± 0.043.

With AGAGCGTTCG, the switch fluorescence ratio amounted to 0.998 ± 0.042.

On to CTAAGGGGGG, for which the switch fluorescence ratio worked out at 1.04 ± 0.033.

For TGTTGGCGGG, the switch fluorescence ratio came out at 0.989 ± 0.015.

Regarding GATCAGAGGT, the switch fluorescence ratio came to 1 ± 0.029.

On to GGTAAGTGTT, for which the switch fluorescence ratio amounted to 1.003 ± 0.0044.

With GATGTCAACG, the switch fluorescence ratio was found to be 0.973 ± 0.032.

For the sequence AGCTGAACGG, the switch fluorescence ratio stood at 1.05 ± 0.025.

For GGAATTTTGC, the switch fluorescence ratio stood at 1.03 ± 0.031.

As to ATGGGAAGAC, the switch fluorescence ratio came to 1.06 ± 0.017.

Turning to ACTCGGTGTG, the switch fluorescence ratio stood at 0.992 ± 0.029.
